Drawing on the supplement of paper PMC9428881, this text covers background-corrected fluorescence for 27 sequences.

± gives the standard error.

This data set is described as follows: background-corrected fluorescence of 3'-dye-labeled ssDNA relative to brightest sequence (3'-GCGCG) (fraction); higher = brighter dye fluorescence (less quenching). The protocol:
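Single-stranded DNA is synthesized in situ on glass microarrays by 5'->3' photolithographic synthesis, with a Cy3 or Cy5 phosphoramidite coupled at the 3' end next to all 1024 permuted pentamers P1-P5. The construct is 5'-T5-(ACGT minus P5..P1 trinucleotides)-T15-P5P4P3P2P1-dye-3'; the dye is a 3' terminal modification, not part of the sequence. Arrays were scanned at 532 nm (Cy3) or 635 nm (Cy5), background from unlabeled oligos was subtracted, and values are averaged over 10 replicate features per array and at least 3 independent syntheses.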

“TTTTTGCAGCATGATGATGCTTTTTTTTTTTTTTTTTCCA [ACCTT]”: the background-corrected fluorescence stood at 0.453 ± 0.026 (dye: Cy3 (3' terminal)) and 0.35 ± 0.028 (dye: Cy5 (3' terminal)).

For “TTTTTGCAGCATGATGCGCATTTTTTTTTTTTTTTTTCAT [TACTT]”, the background-corrected fluorescence by setting is: (dye: Cy3 (3' terminal)) 0.519 ± 0.033; (dye: Cy5 (3' terminal)) 0.378 ± 0.021.

As to “TTTTTGCAGCATGATGCTCATTTTTTTTTTTTTTTTTCAG [GACTT]”, the background-corrected fluorescence reads like this: (dye: Cy3 (3' terminal)) 0.506 ± 0.032; (dye: Cy5 (3' terminal)) 0.358 ± 0.027.

Regarding “TTTTTGCAGCATGATGCTGATTTTTTTTTTTTTTTTTCAC [CACTT]”, the background-corrected fluorescence (dye: Cy3 (3' terminal)) turned out to be 0.385 ± 0.01 and the background-corrected fluorescence (dye: Cy5 (3' terminal)) amounted to 0.289 ± 0.016.

Take “TTTTTGCAGCATGATGCTGCTTTTTTTTTTTTTTTTTCAA [AACTT]”: the background-corrected fluorescence was 0.545 ± 0.04 (dye: Cy3 (3' terminal)) and 0.422 ± 0.055 (dye: Cy5 (3' terminal)).

With “TTTTTGCAGCATGCGCAGCATTTTTTTTTTTTTTTTTATT”, the background-corrected fluorescence runs as follows: (dye: Cy3 (3' terminal)) 0.5242 ± 0.0046; (dye: Cy5 (3' terminal)) 0.403 ± 0.029.

For the sequence “TTTTTGCAGCATGCGCATCATTTTTTTTTTTTTTTTTATG [GTATT]”, the background-corrected fluorescence (dye: Cy3 (3' terminal)) stood at 0.467 ± 0.015 and the background-corrected fluorescence (dye: Cy5 (3' terminal)) is 0.366 ± 0.024.

Take “TTTTTGCAGCATGCGCATGATTTTTTTTTTTTTTTTTATC [CTATT]”: the background-corrected fluorescence amounted to 0.473 ± 0.024 (dye: Cy3 (3' terminal)) and 0.312 ± 0.018 (dye: Cy5 (3' terminal)).

In the case of “TTTTTGCAGCATGCGCATGCTTTTTTTTTTTTTTTTTATA [ATATT]”, the background-corrected fluorescence is, setting by setting: (dye: Cy3 (3' terminal)) 0.538 ± 0.038; (dye: Cy5 (3' terminal)) 0.4 ± 0.028.

Sequence “TTTTTGCAGCATGCTCAGCATTTTTTTTTTTTTTTTTAGT [TGATT]” came in with a background-corrected fluorescence (dye: Cy3 (3' terminal)) of 0.619 ± 0.012 and a background-corrected fluorescence (dye: Cy5 (3' terminal)) of 0.5 ± 0.03.

For the sequence “TTTTTGCAGCATGCTCATCATTTTTTTTTTTTTTTTTAGG [GGATT]”, the background-corrected fluorescence (dye: Cy3 (3' terminal)) amounted to 0.612 ± 0.027 and the background-corrected fluorescence (dye: Cy5 (3' terminal)) amounted to 0.489 ± 0.054.

For “TTTTTGCAGCATGCTCATGATTTTTTTTTTTTTTTTTAGC [CGATT]”, the background-corrected fluorescence by setting is: (dye: Cy3 (3' terminal)) 0.506 ± 0.028; (dye: Cy5 (3' terminal)) 0.385 ± 0.023.

“TTTTTGCAGCATGCTCATGCTTTTTTTTTTTTTTTTTAGA [AGATT]”: the background-corrected fluorescence by setting is: (dye: Cy3 (3' terminal)) 0.6442 ± 0.0061; (dye: Cy5 (3' terminal)) 0.531 ± 0.036.

For “TTTTTGCAGCATGCTGAGCATTTTTTTTTTTTTTTTTACT [TCATT]”, the background-corrected fluorescence by setting is: (dye: Cy3 (3' terminal)) 0.49 ± 0.013; (dye: Cy5 (3' terminal)) 0.361 ± 0.047.

Regarding “TTTTTGCAGCATGCTGATCATTTTTTTTTTTTTTTTTACG [GCATT]”, the background-corrected fluorescence reads like this: (dye: Cy3 (3' terminal)) 0.5 ± 0.023; (dye: Cy5 (3' terminal)) 0.398 ± 0.08.

In the case of “TTTTTGCAGCATGCTGATGATTTTTTTTTTTTTTTTTACC [CCATT]”, the background-corrected fluorescence was 0.388 ± 0.019 (dye: Cy3 (3' terminal)) and 0.286 ± 0.017 (dye: Cy5 (3' terminal)).

Turning to “TTTTTGCAGCATGCTGATGCTTTTTTTTTTTTTTTTTACA [ACATT]”, the background-corrected fluorescence runs as follows: (dye: Cy3 (3' terminal)) 0.502 ± 0.01; (dye: Cy5 (3' terminal)) 0.397 ± 0.025.

On to “TTTTTGCAGCATGCTGCGCATTTTTTTTTTTTTTTTTAAT [TAATT]”, for which the background-corrected fluorescence (dye: Cy3 (3' terminal)) worked out at 0.576 ± 0.018 and the background-corrected fluorescence (dye: Cy5 (3' terminal)) came to 0.412 ± 0.019.

Consider “TTTTTGCAGCATGCTGCTCATTTTTTTTTTTTTTTTTAAG [GAATT]”, for which the background-corrected fluorescence runs as follows: (dye: Cy3 (3' terminal)) 0.536 ± 0.025; (dye: Cy5 (3' terminal)) 0.411 ± 0.026.

Turning to “TTTTTGCAGCATGCTGCTGATTTTTTTTTTTTTTTTTAAC [CAATT]”, the background-corrected fluorescence is, setting by setting: (dye: Cy3 (3' terminal)) 0.408 ± 0.011; (dye: Cy5 (3' terminal)) 0.314 ± 0.026.

Regarding “TTTTTGCAGCATGCTGCTGCTTTTTTTTTTTTTTTTTAAA [AAATT]”, the background-corrected fluorescence is, setting by setting: (dye: Cy3 (3' terminal)) 0.63 ± 0.021; (dye: Cy5 (3' terminal)) 0.487 ± 0.042.

Sequence “TTTTTGCATCAGCAGCAGCATTTTTTTTTTTTTTTTGTTT” yielded a background-corrected fluorescence (dye: Cy3 (3' terminal)) of 0.511 ± 0.028 and a background-corrected fluorescence (dye: Cy5 (3' terminal)) of 0.396 ± 0.06.

For the sequence “TTTTTGCATCAGCAGCATCATTTTTTTTTTTTTTTTGTTG [GTTGT]”, the background-corrected fluorescence amounted to 0.515 ± 0.027 (dye: Cy3 (3' terminal)) and 0.373 ± 0.017 (dye: Cy5 (3' terminal)).

Consider “TTTTTGCATCAGCAGCATGATTTTTTTTTTTTTTTTGTTC [CTTGT]”, for which the background-corrected fluorescence is, setting by setting: (dye: Cy3 (3' terminal)) 0.433 ± 0.0082; (dye: Cy5 (3' terminal)) 0.31 ± 0.025.

Turning to “TTTTTGCATCAGCAGCATGCTTTTTTTTTTTTTTTTGTTA [ATTGT]”, the background-corrected fluorescence is, setting by setting: (dye: Cy3 (3' terminal)) 0.51 ± 0.02; (dye: Cy5 (3' terminal)) 0.415 ± 0.023.

Take “TTTTTGCATCAGCATCAGCATTTTTTTTTTTTTTTTGTGT”: the background-corrected fluorescence reads like this: (dye: Cy3 (3' terminal)) 0.603 ± 0.025; (dye: Cy5 (3' terminal)) 0.497 ± 0.026.

As for “TTTTTGCATCAGCATCATCATTTTTTTTTTTTTTTTGTGG [GGTGT]”, the background-corrected fluorescence reads like this: (dye: Cy3 (3' terminal)) 0.585 ± 0.06; (dye: Cy5 (3' terminal)) 0.511 ± 0.029.
